The source of these data is IntAct's records for PubMed 22252131.

B1: E3 ubiquitin-protein ligase Hakai (Mus musculus), Q9JIY2 (parent)
chain: MDHTDNELQGTNSSGSLGGLDVRRRIPIKLISKQASKVKPAPRTQRTVSRMPAKAPQGDEEGFDYNEEQRYDCKGGELFGNQRRFPGHLFWDFKINILGEKDDTPVHFCDKCGLPIKVYGRMIPCKHVFCYDCAILHEKKGDKMCPGCSDPVQRIEQCTRGSLFMCSIVQGCKRTYLSQRDLQAHINHRHMRAGKPVTRASLENVHPPIAPPPTDIPDRFIMPPDKHHMSHIPPKQHIMMPPPPLQHVPHEHYNQPHEDIRAPPAELSMAPPPPRSVSQETFRISTRKHSNLITVPIQDDSSSGAREPPPPAPAPAHHHPEYQGQPVVSHPHHIMPPQQHYAPPPPPPPPISHPMPHPPQAAGTPHLVYSQAPPPPMTSAPPPITPPPGHIIAQMPPYMNHPPPGPPPPQHGGPPVTAPPPHHYNPNSLPQFTEDQGTLSPPFTQPGGMSPGIWPAPRGPPPPPRMQGPPSQTPLPGPHHPDQTRYRPYYQ

In one experiment the parent is B1. The note with it: with cadh1_human CDH1, P12830.
Turning to MDHTDNELQGTNSSGSLGGLDVRRRIPIKLISKQASKVKPAPRTQRTVSRMPAKAPQGDEEGFDYNEEQRYDCKGGELFGNQRRFPGHLFWDFKINILGEKDDTPVHFCDKCGLPIKVYGRMIPCKHVFCYDCAILHEKKGDKMCPGCSDPVQRIEQCTRGSLFMCSIVQGCKRTYLSQRDLQAAINHRHMRAGKPVTRASLENVHPPIAPPPTDIPDRFIMPPDKHHMSHIPPKQHIMMPPPPLQHVPHEHYNQPHEDIRAPPAELSMAPPPPRSVSQETFRISTRKHSNLITVPIQDDSSSGAREPPPPAPAPAHHHPEYQGQPVVSHPHHIMPPQQHYAPPPPPPPPISHPMPHPPQAAGTPHLVYSQAPPPPMTSAPPPITPPPGHIIAQMPPYMNHPPPGPPPPQHGGPPVTAPPPHHYNPNSLPQFTEDQGTLSPPFTQPGGMSPGIWPAPRGPPPPPRMQGPPSQTPLPGPHHPDQTRYRPYYQ [H185A], the “effect of a mutation on the interaction” value was “disrupting interaction”.

The variants in another experiment derive from B1. The note with it: with src8_human CTTN.
Regarding MDHTDNELQGTNSSGSLGGLDVRRRIPIKLISKQASKVKPAPRTQRTVSRMPAKAPQGDEEGFDYNEEQRYDCKGGELFGNQRRFPGHLFWDFKINILGEKDDTPVHFCDKCGLPIKVYGRMIPCKHVFCYDCAILHEKKGDKMCPGCSDPVQRIEQCTRGSLFMCSIVQGCKRTYLSQRDLQAAINHRHMRAGKPVTRASLENVHPPIAPPPTDIPDRFIMPPDKHHMSHIPPKQHIMMPPPPLQHVPHEHYNQPHEDIRAPPAELSMAPPPPRSVSQETFRISTRKHSNLITVPIQDDSSSGAREPPPPAPAPAHHHPEYQGQPVVSHPHHIMPPQQHYAPPPPPPPPISHPMPHPPQAAGTPHLVYSQAPPPPMTSAPPPITPPPGHIIAQMPPYMNHPPPGPPPPQHGGPPVTAPPPHHYNPNSLPQFTEDQGTLSPPFTQPGGMSPGIWPAPRGPPPPPRMQGPPSQTPLPGPHHPDQTRYRPYYQ [H185A], the “effect of a mutation on the interaction” value is “disrupting interaction”.

In another experiment the parent is B1. The note with it: with cadh1_human CDH1, P12830. This is another data set of the same source.
Consider MDHTDNELQGTNSSGSLGGLDVRRRIPIKLISKQASKVKPAPRTQRTVSRMPAKAPQGDEEGFDYNEEQRYDCKGGELFGNQRRFPGHLFWDFKINILGEKDDTPVHFCDKCGLPIKVYGRMIPCKHVFCYDCAILHEKKGDKMCPGCSDPVQRIEQCTRGSLFMCSIVQGAKRTYLSQRDLQAHINHRHMRAGKPVTRASLENVHPPIAPPPTDIPDRFIMPPDKHHMSHIPPKQHIMMPPPPLQHVPHEHYNQPHEDIRAPPAELSMAPPPPRSVSQETFRISTRKHSNLITVPIQDDSSSGAREPPPPAPAPAHHHPEYQGQPVVSHPHHIMPPQQHYAPPPPPPPPISHPMPHPPQAAGTPHLVYSQAPPPPMTSAPPPITPPPGHIIAQMPPYMNHPPPGPPPPQHGGPPVTAPPPHHYNPNSLPQFTEDQGTLSPPFTQPGGMSPGIWPAPRGPPPPPRMQGPPSQTPLPGPHHPDQTRYRPYYQ [C172A], for which the “effect of a mutation on the interaction” value is “disrupting interaction”.

The variants in another experiment derive from B1. The note with it: with src8_human CTTN. The source holds these as a separate data set.
With MDHTDNELQGTNSSGSLGGLDVRRRIPIKLISKQASKVKPAPRTQRTVSRMPAKAPQGDEEGFDYNEEQRYDCKGGELFGNQRRFPGHLFWDFKINILGEKDDTPVHFCDKCGLPIKVYGRMIPCKHVFCYDCAILHEKKGDKMCPGCSDPVQRIEQCTRGSLFMCSIVQGAKRTYLSQRDLQAHINHRHMRAGKPVTRASLENVHPPIAPPPTDIPDRFIMPPDKHHMSHIPPKQHIMMPPPPLQHVPHEHYNQPHEDIRAPPAELSMAPPPPRSVSQETFRISTRKHSNLITVPIQDDSSSGAREPPPPAPAPAHHHPEYQGQPVVSHPHHIMPPQQHYAPPPPPPPPISHPMPHPPQAAGTPHLVYSQAPPPPMTSAPPPITPPPGHIIAQMPPYMNHPPPGPPPPQHGGPPVTAPPPHHYNPNSLPQFTEDQGTLSPPFTQPGGMSPGIWPAPRGPPPPPRMQGPPSQTPLPGPHHPDQTRYRPYYQ [C172A], the “effect of a mutation on the interaction” value is listed as “disrupting interaction”.

The variants in another experiment derive from B1. The following applies: with cadh1_human CDH1, P12830. This is another data set of the same source.
In the case of MDHTDNELQGTNSSGSLGGLDVRRRIPIKLISKQASKVKPAPRTQRTVSRMPAKAPQGDEEGFDYNEEQRYDCKGGELFGNQRRFPGHLFWDFKINILGEKDDTPVHFCDKCGLPIKVYGRMIPCKHVFCYDCAILHEKKGDKMCPGCSDPVQRIEQCTRGSLFMASIVQGCKRTYLSQRDLQAHINHRHMRAGKPVTRASLENVHPPIAPPPTDIPDRFIMPPDKHHMSHIPPKQHIMMPPPPLQHVPHEHYNQPHEDIRAPPAELSMAPPPPRSVSQETFRISTRKHSNLITVPIQDDSSSGAREPPPPAPAPAHHHPEYQGQPVVSHPHHIMPPQQHYAPPPPPPPPISHPMPHPPQAAGTPHLVYSQAPPPPMTSAPPPITPPPGHIIAQMPPYMNHPPPGPPPPQHGGPPVTAPPPHHYNPNSLPQFTEDQGTLSPPFTQPGGMSPGIWPAPRGPPPPPRMQGPPSQTPLPGPHHPDQTRYRPYYQ [C166A], the “effect of a mutation on the interaction” value was “disrupting interaction”.

The variants in another experiment derive from B1. The following applies: with src8_human CTTN. This is another data set of the same source.
For MDHTDNELQGTNSSGSLGGLDVRRRIPIKLISKQASKVKPAPRTQRTVSRMPAKAPQGDEEGFDYNEEQRYDCKGGELFGNQRRFPGHLFWDFKINILGEKDDTPVHFCDKCGLPIKVYGRMIPCKHVFCYDCAILHEKKGDKMCPGCSDPVQRIEQCTRGSLFMASIVQGCKRTYLSQRDLQAHINHRHMRAGKPVTRASLENVHPPIAPPPTDIPDRFIMPPDKHHMSHIPPKQHIMMPPPPLQHVPHEHYNQPHEDIRAPPAELSMAPPPPRSVSQETFRISTRKHSNLITVPIQDDSSSGAREPPPPAPAPAHHHPEYQGQPVVSHPHHIMPPQQHYAPPPPPPPPISHPMPHPPQAAGTPHLVYSQAPPPPMTSAPPPITPPPGHIIAQMPPYMNHPPPGPPPPQHGGPPVTAPPPHHYNPNSLPQFTEDQGTLSPPFTQPGGMSPGIWPAPRGPPPPPRMQGPPSQTPLPGPHHPDQTRYRPYYQ [C166A], the “effect of a mutation on the interaction” value is reported as “disrupting interaction”.
